Results as given in article PMC8844826.

How the values were obtained:
[1] = molecular target: full length PSD-95 (FL-PSD-95, 1-724) (human) (UniProt P78352); assay: fluorescence polarisation; competition at pH 9.4: PSD-95 (150 nM) and fluorescent tracer, increasing NA-1; apparent
[2] = molecular target: full length PSD-95 (FL-PSD-95, 1-724) (human) (UniProt P78352); assay: fluorescence polarisation; competition at pH 6.4: PSD-95 (150 nM) and fluorescent tracer, increasing NA-1; apparent
[3] = molecular target: full length PSD-95 (FL-PSD-95, 1-724) (human) (UniProt P78352); assay: fluorescence polarisation; competition at pH 8.4: PSD-95 (150 nM) and fluorescent tracer, increasing NA-1; apparent
[4] = molecular target: full length PSD-95 (FL-PSD-95, 1-724) (human) (UniProt P78352); assay: fluorescence polarisation; competition at pH 7.4: PSD-95 (150 nM) and fluorescent tracer, increasing NA-1; apparent

Sequence of full length PSD-95 (FL-PSD-95, 1-724) (human) (P78352 whole entry): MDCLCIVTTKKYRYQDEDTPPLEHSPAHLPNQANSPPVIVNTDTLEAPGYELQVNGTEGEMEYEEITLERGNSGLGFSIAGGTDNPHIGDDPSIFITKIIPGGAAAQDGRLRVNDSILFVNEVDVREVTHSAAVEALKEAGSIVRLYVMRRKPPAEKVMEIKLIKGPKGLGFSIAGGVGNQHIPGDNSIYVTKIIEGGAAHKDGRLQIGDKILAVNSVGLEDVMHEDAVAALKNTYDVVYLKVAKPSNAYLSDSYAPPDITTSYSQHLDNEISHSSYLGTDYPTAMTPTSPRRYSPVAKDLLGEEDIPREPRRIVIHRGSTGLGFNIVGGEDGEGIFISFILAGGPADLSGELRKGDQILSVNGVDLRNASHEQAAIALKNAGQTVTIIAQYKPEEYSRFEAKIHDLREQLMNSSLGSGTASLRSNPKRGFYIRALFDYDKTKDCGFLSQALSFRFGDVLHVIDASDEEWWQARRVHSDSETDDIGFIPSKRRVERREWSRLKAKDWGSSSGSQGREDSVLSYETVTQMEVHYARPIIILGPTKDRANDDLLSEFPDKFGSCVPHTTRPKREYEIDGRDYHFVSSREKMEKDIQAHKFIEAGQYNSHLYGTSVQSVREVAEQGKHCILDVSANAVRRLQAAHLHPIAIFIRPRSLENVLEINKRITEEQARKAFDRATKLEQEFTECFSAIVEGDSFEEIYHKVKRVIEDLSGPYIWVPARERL

NA-1 (nerinetide): TAT peptide fused to C-terminal residues of the GluN2B NMDAR subunit
Ki [1]: 4.1 µM | Ki [2]: 7.2 µM | Ki [3]: 2.6 µM | Ki [4]: 4.5 µM
